Tested on: MS2 coat protein
Test: apparent KD of MS2 coat protein; designed switch direction (-1 OFF switch, 1 ON switch): -1; higher = weaker reporter binding
Method in brief: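 Designed RNA switches with common flanks were transcribed on Illumina chips by stalled E. coli RNA polymerase and titrated with SNAP-549-labelled MS2 coat protein, from 0.7 or 1.5 nM doubling to 3 µM, in Tris-HCl pH 7.5 buffer with KCl, MgCl2, BSA, DTT, tRNA and Tween-20. Steps lasted 0.8–1.5 h (lowest) to 10–20 min (highest). Titrations ran without input, with 200 uM small-molecule ligand, or with an oligonucleotide input. Normalised cluster fluorescence was curve-fitted, and apparent KD is the per-design median over clusters.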

[1] = Eterna round: R95, input ligand: FMN 200 uM
[2] = Eterna round: R95, input ligand: microRNA oligo, concentration not stated
[3] = Eterna round: R95, input ligand: none
[4] = input ligand: microRNA oligo, concentration not stated

Sequence: UGCGAGUAAGGAUAUUCGCGACCGUUCACAAGAACGGUCGAGAAGAAGGUACUUGAGGAUCACCCAAGUCCUAG [Leonxegece] (Eterna round: R97, puzzle: Exclusion 4)
- apparent KD of MS2 coat protein (input ligand: FMN 200 uM): 103 nM
- apparent KD of MS2 coat protein (input ligand: none): 24.2 nM

Sequence: UUUAAUUUUUUUUUUUUACAAGCUUUUUGCUCGUCUUAUACAUGAGGAUCACCCAUGUAGGUGGGAAGUAAAUUAUC [JMF 57] (puzzle: Sensor v3, turn-off variant 2)
- apparent KD of MS2 coat protein [1]: 33 nM
- apparent KD of MS2 coat protein [2]: 97.5 nM
- apparent KD of MS2 coat protein [3]: 37.5 nM

Sequence: GAAUAUAAGCAAAGAUCCUACAUGAGGAUCACCCAUGUGCUCGUCUUAUAAAGUACUAUCACGAAAGUGAUAGUACA [Mat - Sensor v3 - turn-off var 1 - Eli Mod - D82] (puzzle: Sensor v3, turn-off variant 1)
- apparent KD of MS2 coat protein [1]: 89.9 nM
- apparent KD of MS2 coat protein [2]: 25.1 nM
- apparent KD of MS2 coat protein [3]: 135 nM

Sequence: AUCCAACAUGAGGAUCACCCAUGUCAGGAUAUACCCAUCUCCACCUAAUCGGUGGUGGGUAGAAGGGAUAUGUC [EX1 B.10] (Eterna round: R97, puzzle: Exclusion 1)
- apparent KD of MS2 coat protein (input ligand: FMN 200 uM): 22.6 nM
- apparent KD of MS2 coat protein (input ligand: none): 18.9 nM

Sequence: UUAGUGUGAGGAUAUGGUAAAGAUAAGAUGAUGAAAGAACUCCAGAAGGCACAUGAGGAUCACCCAUGUAGAUG [JL-ex4-2.13 Jieux mod] (puzzle: Exclusion 4)
- apparent KD of MS2 coat protein [1]: 67.4 nM
- apparent KD of MS2 coat protein [2]: 35.4 nM
- apparent KD of MS2 coat protein [3]: 30.6 nM

Sequence: GGUUGGCGAGGAUAUACAUGAGGAUCACCCAUGUGAGAGUAAAAAGUGAGGAAGAAAAGUAGAAGGCGCUGACG [salish99_ex3_r3_011] (puzzle: Exclusion 3)
- apparent KD of MS2 coat protein [1]: 68.6 nM
- apparent KD of MS2 coat protein [2]: 36.3 nM
- apparent KD of MS2 coat protein [3]: 44 nM

Sequence: CCUCAGGCGGAGGAUAUCUAACAACAAUAACAAAGAGAAGGCCGCACAUGAGGAUCACCCAUGUGUAUGGGCCG [Bitierre] (puzzle: Exclusion 6)
- apparent KD of MS2 coat protein [2]: 13.1 nM

Sequence: GGAUAAAACUGAGGAUAUACGUAUCACUAACGAGUAGAAGGCAGACAUGAGGAUCACCCAUGUGAGUUCUCAAUAAGAAACACG [Prohibition 65 - Jieux - Exclusion NG 1] (Eterna round: R96, puzzle: Exclusion NG 1)
- apparent KD of MS2 coat protein (input ligand: FMN 200 uM): 74.9 nM
- apparent KD of MS2 coat protein [4]: 43.5 nM
- apparent KD of MS2 coat protein (input ligand: none): 51.2 nM

Sequence: GUAAAGUGAGGAUAUGGUAAAUUAAUUAUUAAUUAAUUAAUCCAGAAGGCACAUGAGGAUCACCCAUGUAAUUG [Mat - Exclusion 4 - D86] (puzzle: Exclusion 4)
- apparent KD of MS2 coat protein [2]: 22.2 nM

Sequence: CAGGUGUGAGGAUAUGUGAUUAUGAUAGACCGAGUCUACCCACAGAAGGCACAUGAGGAUCACCCAUGUGAGUA [Eternabot (L1) Solution 75] (Eterna round: R97, puzzle: Exclusion 4)
- apparent KD of MS2 coat protein (input ligand: FMN 200 uM): 122 nM
- apparent KD of MS2 coat protein (input ligand: none): 46.6 nM

Sequence: GAAUGAGAGCAGGAUAUCUUAAAAAUGUAUAAAAGAGAAGGGCUCACAUGAGGAUCACCCAUGUGGUCCUAGAU [jl-ex6-4.69 jandersonlee mod] (Eterna round: R97, puzzle: Exclusion 6)
- apparent KD of MS2 coat protein (input ligand: FMN 200 uM): 572 nM
- apparent KD of MS2 coat protein (input ligand: none): 40.5 nM

Sequence: AAAUAAAACAAGCAAUAAAACAUGAGGAUCACCCAUGUAAAGGGUGAAGUUCGCACCCAAAAAUAAAAUAAAUAAAA [Denovo Take 6, 5] (Eterna round: R96, puzzle: Sensor v2, turn-off variant)
- apparent KD of MS2 coat protein (input ligand: FMN 200 uM): 22.1 nM
- apparent KD of MS2 coat protein [4]: 39.6 nM
- apparent KD of MS2 coat protein (input ligand: none): 25 nM
